From US7867500B2, “Cofactor that modulates steroid receptor activities” (The United States of America as represented by the …, priority 2004, dated 2011)

T1: glucocorticoid receptor (GR) (Rattus norvegicus, UniProt P06536)
T1 sequence (P06536 1-795): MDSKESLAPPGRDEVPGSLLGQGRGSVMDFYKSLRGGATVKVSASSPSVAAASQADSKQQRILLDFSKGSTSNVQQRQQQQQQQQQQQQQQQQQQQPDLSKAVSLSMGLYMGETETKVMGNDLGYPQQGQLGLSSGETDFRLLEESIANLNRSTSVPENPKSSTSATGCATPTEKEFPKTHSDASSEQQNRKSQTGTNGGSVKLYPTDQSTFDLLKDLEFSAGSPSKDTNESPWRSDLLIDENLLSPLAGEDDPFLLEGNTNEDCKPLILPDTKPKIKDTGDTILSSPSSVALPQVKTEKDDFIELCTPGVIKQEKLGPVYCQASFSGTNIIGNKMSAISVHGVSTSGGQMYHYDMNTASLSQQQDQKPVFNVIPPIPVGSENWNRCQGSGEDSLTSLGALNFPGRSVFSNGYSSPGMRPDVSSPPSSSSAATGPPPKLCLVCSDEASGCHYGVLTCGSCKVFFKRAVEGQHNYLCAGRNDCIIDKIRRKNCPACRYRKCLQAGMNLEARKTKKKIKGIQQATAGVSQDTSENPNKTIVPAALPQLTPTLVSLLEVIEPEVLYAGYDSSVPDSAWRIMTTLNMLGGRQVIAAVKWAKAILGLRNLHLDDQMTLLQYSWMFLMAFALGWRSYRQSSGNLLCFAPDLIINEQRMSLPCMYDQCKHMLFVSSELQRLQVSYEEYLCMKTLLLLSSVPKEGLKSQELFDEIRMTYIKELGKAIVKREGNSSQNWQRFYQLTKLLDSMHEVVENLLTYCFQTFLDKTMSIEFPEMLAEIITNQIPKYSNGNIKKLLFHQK

T2: TIF2(1140C) (Homo sapiens, UniProt Q15596)
T2 construct: the PCR product of TIF2 with the TIF2-1140F and TIF2-1464R primers; expressed in transfected cells; host or cells: CV-1
T2 sequence (Q15596 1140-1464): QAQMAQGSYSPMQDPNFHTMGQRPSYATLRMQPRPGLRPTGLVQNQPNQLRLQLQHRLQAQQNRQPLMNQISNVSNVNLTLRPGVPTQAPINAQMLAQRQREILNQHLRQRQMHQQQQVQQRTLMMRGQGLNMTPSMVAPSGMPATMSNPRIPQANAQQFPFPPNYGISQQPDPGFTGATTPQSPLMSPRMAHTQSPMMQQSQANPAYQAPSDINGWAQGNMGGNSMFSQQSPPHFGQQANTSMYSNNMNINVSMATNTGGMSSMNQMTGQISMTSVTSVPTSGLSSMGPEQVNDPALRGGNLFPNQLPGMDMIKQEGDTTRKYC


What was measured:
[1] = target: T1, glucocorticoid receptor (GR); test: GR-mediated induction of GREtkLUC reporter, transient transfection of CV-1 cells
Description: Triplicate samples of CV-1 cells were transiently transfected with GR (6 ng)±TIF2 (20 ng)±STAMP (160 ng) plasmids, GREtkLUC reporter, and Renilla control plasmid. […] FIG. 4B illustrates the fold changes in GR induction parameters by STAMP and TIF2. […] The fold-increase in each parameter was determined as follows: for EC50s, fold increase=[EC50]GR/[EC50]GR+factor; for partial agonist activity and fold Dex induction, fold increase=activityGR+factor/activityGR). The average fold increases were then plotted±S.E.M (n=4).
CV-1 cells were transiently transfected with GR (6 ng)±TIF2 (20 ng)±STAMP (160 ng) plasmids, GREtkLUC reporter, and Renilla control plasmid, and induced with ethanol± the indicated concentrations of Dex.
Tests were run to determine whether exogenous STAMP can modulate the EC50 of glucocorticoids and the partial agonist activity of antiglucocorticoids in the transient transfection assays where GR induced gene expression from a GREtkLUC reporter.

[2] = test system: GR repression of an AP-1 induced gene; test: GR-mediated repression of PMA-induced AP-1/Luc reporter in U2OS.rGR cells; format: cell-based; details: 25 μM PMA, no Dex
Description: FIG. 5A-F illustrate STAMP modulation of GR-mediated repression. […] U2OS.rGR cells were transiently transfected with ±TIF2 (20 ng)±STAMP (100 ng) plasmids, AP-1/Luc reporter (20 ng), and Renilla control (10 ng) plasmid. The cells were induced with ethanol (EtOH) or 25 μM PMA±0.1 μM Dex. […] The average values±S.E.M. of four experiments are plotted. The numbers in parentheses above the bars labeled “PMA+Dex” represent the average fold repression caused by Dex± the various factors.
FIG. 5B illustrates that functional TIF2 is needed for optimal STAMP activity. U2OS.rGR cells were transiently transfected and processed as described for FIG. 5A but less STAMP (50 ng) was used and two concentrations of TIF2 or TIF2m123 (10 and 20 ng) were employed. The average values±S.E.M. of 4-5 experiments are plotted. An asterisk indicates a significant difference (P≦0.031) between samples containing equal amounts of TIF2 and TIF2m123.
Rogatsky et al. have reported that TIF2 augments GR repression of an AP-1 induced gene. […] The TIF2 domain identified as having TIF2 activity in GR repression was the same as used to isolate STAMP. In order to determine if STAMP was active in GR-mediated gene repression as well as induction, the ability of STAMP to increase the repressive activity of GR in the AP-1 responsive whole cell bioassay system was assessed using U2OS.rGR cells.

TIF2(1140C) = target: T2, TIF2(1140C); test: Mammalian two-hybrid assay in CV-1 cells with TIF2(1140C); format: cell-based
Description: FIG. 2A-2C illustrate the isolation and characterization of the partial clone of the protein that binds to TIF2.4. […] Five clones were obtained but only two (clones I and V) contained a protein that was needed for colony growth in the presence of the pSos/TIF2.4 fusion protein. After initial screening, only clone I (also named 6-6CL1) was selected for further investigation. FIG. 2B and FIG. 2C illustrate the selectivity of 6-6CL1 interactions with TIF2.4 in mammalian two-hybrid assays. Triplicate samples of CV-1 cells in 24-well plates were transiently transfected with the indicated GAL-DBD and VP16-AD plasmids along with the GAL4-regulated reporter, pFRLuc. The relative luciferase activity, normalized for the activity of the internal Renilla control, was determined and plotted as the average±S.D. The much lower activity of GAL/TIF2.4m123 was previously shown not to be due to unequal levels of protein expression (He et al., 2002). Similar results were obtained in three additional experiments. […] Triplicate samples of CV-1 cells in 24-well plates were analyzed as in (B&C) after being transiently transfected with GAL±6-6CL1 constructs and pFRLuc reporter along with VP16 chimeras of SRC-1 (FIG. 2D) or TIF2 (FIG. 2E) segments. Similar results for SRC-1 were obtained in two additional experiments (ND=not determined). […]

| Molecule | increase in the partial agonist activity of the antagonist Dex-Mes ([1]; STAMP alone, no exogenous coactivators, low GR, 1 μM Dex-Mes, S.E.M., n=6, P=0.023) [fold] | shift in the dose-response curve to lower steroid concentrations ([1]; STAMP alone, no exogenous coactivators, low GR, Dex, S.E.M., n=6, P=0.0074) [fold] | fold induction by 1 μM Dex, fold increase ([1]; STAMP alone, S.E.M., n=6) [fold] | total amount of gene product induced by 1 μM Dex, fold increase ([1]; STAMP alone, S.E.M., n=6) [fold] | fold induction (above basal activity) with 1 μM Dex ([1]; both with and without added TIF2 (FIG. 4B)) | fold induction by PMA [2] | interaction with TIF2(1140C) (TIF2(1140C)) |
| --- | --- | --- | --- | --- | --- | --- | --- |
| STAMP: SRC-1 and TIF2 Associated Modulatory Protein, 1277 amino acid human polypeptide, expressed from transfected plasmid (protein) MARDLEETASSSEDEEVISQEDHPCIMWTGGCRRIPVLVFHADAILTKDNNIRVIGERYHLSYKIVRTDSRLVRSILTAHGFHEVHPSSTDYNLMWTGSHLKPFLLRTLSEAQKVNHFPRSYELTRKDRLYKNIIRMQHTHGFKVFHILPQTFLLPAEYAEFCNSYSKDRGPWIVKPVASSRGRGVYLINNPNQISLEENILVSRYINNPLLIDDFKFDVRLYVLVTSYDPLVIYLYEEGLARFATVRYDQGAKNIRNQFMHLTNYSVNKKSGDYVSCDDPEVEDYGNKWSMSAMLRYLKQEGRDTTALMAHVEDLIIKTIISAELAIATACKTFVPHRSSCFELYGFDVLIDSTLKPWLLEVNLSPSLACDAPLDLKIKASMISDMFTVVGFVCQDPAQRASTRPIYPTFESSRRNPFQKPQRCRPLSASDAEMKNLVGSAREKGPGKLGGSVLGLSMEEIKVLRRVKEENDRRGGFIRIFPTSETWEIYGSYLEHKTSMNYMLATRLFQDRMTADGAPELKIESLNSKAKLHAALYERKLLSLEVRKRRRRSSRLRAMRPKYPVITQPAEMNVKTETESEEEEEVALDNEDEEQEASQEESAGFLRENQAKYTPSLTALVENTPKENSMKVREWNNKGGHCCKLETQELEPKFNLMQILQDNGNLSKMQARIAFSAYLQHVQIRLMKDSGGQTFSASWAAKEDEQMELVVRFLKRASNNLQHSLRMVLPSRRLALLERRRILAHQLGDFIIVYNKETEQMAEKKSKKKVEEEEEDGVNMENFQEFIRQASEAELEEVLTFYTQKNKSASVFLGTHSKISKNNNNYSDSGAKGDHPETIMEEVKIKPPKQQQTTEIHSDKLSRFTTSAEKEAKLVYSNSSSGPTATLQKIPNTHLSSVTTSDLSPGPCHHSSLSQIPSAIPSMPHQPTILLNTVSASASPCLHPGAQNIPSPTGLPRCRSGSHTIGPFSSFQSAAHIYSQKLSRPSSAKAGSCYLNKHHSGIAKTQKEGEDASLYSKRYNQSMVTAELQRLAEKQAARQYSPSSHINLLTQQVTNLNLATGIINRSSASAPPTLRPIISPSGPTWSTQSDPQAPENHSSSPGSRSLQTGGFAWEGEVENNVYSQATGVVPQHKYHPTAGSYQLQFALQQLEQQKLQSRQLLDQSRARHQAIFGSQTLPNSNLWTMNNGAGCRISSATASGQKPTTLPQKVVPPPSSCASLVPKPPPNHEQVLRRATSQKASKGSSAEGQLNGLQSSLNPAASVPITSSTDPAHTKI | 1.16±0.05 | 1.54±0.12 | 0.93±0.08 | 1.26±0.05 | increases the fold induction | unchanged | – |
| 6-6CL1: STAMP fragment amino acids 623-834, coactivator interaction domain (CID) (protein) ENTPKENSMKVREWNNKGGHCCKLETQELEPKFNLMQILQDNGNLSKMQARIAFSAYLQHVQIRLMKDSGGQTFSASWAAKEDEQMELVVRFLKRASNNLQHSLRMVLPSRRLALLERRRILAHQLGDFIIVYNKETEQMAEKKSKKKVEEEEEDGVNMENFQEFIRQASEAELEEVLTFYTQKNKSASVFLGTHSKISKNNNNYSDSGAKG | – | – | – | – | – | – | does not interact |
